Experimental data: patent publication US20240041978A1, “LA PROTEIN AS A NOVEL REGULATOR OF OSTEOCLASTOGENESIS” (The U.S.A., as Represented by the Secretary, Department of …, priority 2021, published 2024)

Assays:
[1] = biological target: T1, Anx A5 on PS containing liposomes (Homo sapiens, UniProt P08758); test: Liposome binding assay
T1 sequence (P08758 1-320): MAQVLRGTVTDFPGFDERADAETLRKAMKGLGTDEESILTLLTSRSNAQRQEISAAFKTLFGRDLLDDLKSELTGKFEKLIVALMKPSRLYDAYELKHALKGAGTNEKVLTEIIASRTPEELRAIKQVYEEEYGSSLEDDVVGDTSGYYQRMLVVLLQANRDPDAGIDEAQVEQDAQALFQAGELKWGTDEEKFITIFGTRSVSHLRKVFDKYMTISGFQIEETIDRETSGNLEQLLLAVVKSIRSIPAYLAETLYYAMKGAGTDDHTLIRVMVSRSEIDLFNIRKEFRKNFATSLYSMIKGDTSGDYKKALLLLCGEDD
Source text: Anx A5 binds to PS containing membranes in a Ca^2+-dependent manner. Recombinant La was introduced alone or along with recombinant Anx A5 to PS containing liposomes and pelleted liposomes by centrifugation to evaluate whether La was enriched with liposomes or in supernatant (FIG. 12C).
Liposome binding assay: Multilamellar liposomes were formed from pure PC or 9:1 (w/w) mixture of PC and PS. Both lipid compositions were supplemented with 0.5 mol % of lissamine rhodamine phosphatidylethanolamine. To prepare liposomes, lipid stock in benzene/methanol (95:5) was frozen in liquid nitrogen and freeze-dried overnight using SPEEDVAC™ (Savant). Dried lipid was resuspended in aqueous buffer (100 mM NaCl, 10 mM Hepes, pH 7.0) at 1 mM total lipid concentration and vortexed. Proteins and CaCl2 were added to the liposomes and the mixtures were incubated on ice for 30 minutes. To pellet, liposomes were centrifugated at 15,000 g for 20 minutes to pellet, based on rhodamine fluorescence ˜95% of liposomes. Centrifugated samples were then fractionated into a top, liposome-depleted fraction and a bottom fraction containing liposomes and liposome-bound proteins. Fractions were then solubilized via addition of Laemmli buffer (Bio Rad) and separated via SDS-PAGE, as described above. Recombinant La and recombinant Anx A5 were detected via their n-terminal 6×His tag via α-6×His antibody (Abcam) and signals for soluble vs liposome bound protein fractions were evaluated via densitometry. Data were presented as a percentage of protein signal bound to liposomes where: […]

[2] = system: HA0-expressing 3T3 fibroblasts and red blood cells; test: HA0-RBC fusion assay; assay type: cell-based, mouse, human
human osteoclasts = test: Synchronized osteoclast membrane fusion after LPC removal; assay type: cell-based; conditions: recombinant La applied to LPC-synchronized osteoclasts
Method: It was then assessed whether La at the surface of human osteoclasts functions at the cell fusion stage of osteoclastogensis. All cell-cell fusion events in development and tissue maintenance proceed through slow (days), asynchronous differentiation processes that prepare fusion competent cells (Brukman et al., J Cell Biol 218, 1436-1451, doi:10.1083/jcb.201901017 (2019)). Then, PM fusion occurs by the rapid (minutes) progression from the initial formation of hemifusion connections to fusion pores that unite the volumes of two cells (FIG. 3D, top). These steps were decoupled in the formation of multinucleated syncytia using the hemifusion inhibitor lysophosphatidylcholine (LPC) (Verma et al., J Biol Chem 293, 254-270, doi:10.1074/jbc.M117.809681 (2018)). LPC's inverted cone shape is not conducive to the concave geometry of the hemifusion stalk, so ready-to-fuse cells are trapped upstream of hemifusion. After removing LPC, cells undergo synchronized fusion relatively rapidly (within 90 mins), affording the ability to assess the function of proteins specifically in the membrane fusion stage of osteoclast formation decoupled from upstream differentiation processes (FIG. 3D, bottom). Ready-to-fuse, RANKL committed cells were accumulated in the presence of LPC, and then this hemifusion blockade was lifted by washing out LPC. […]

[3] = system: human monocyte-derived osteoclasts; test: Osteoclast fusion assay (number of fusion events, fluorescence microscopy); assay type: cell-based; conditions: recombinant protein ~40 nM added end of day 2 post-RANKL, overnight
Method: Osteoclasts: Elutriated monocytes from healthy donors were obtained. Cells were plated at 2.9×10^5 per cm^2 in 35 mm dishes with polymer coverslip bottoms (Ibidi #81156) for imaging or 35 mm or 10 cm dishes for biochemical experiments in complete media [α-MEM supplemented with 10% Fetal Bovine Serum (FBS) and penicillin-streptomycin-L-glutamine (Gibco Invitrogene #12571063; #26140079 and #10378016, respectively)]. Monocytes were differentiated to M2 macrophages in the presence of 100 ng/ml M-CSF for 6 days and then differentiated with 100 ng/ml M-CSF and 100 ng/ml RANKL for 3 days unless indicated otherwise. RAW 264.7 cells (ATCC, Manassas, VA, #TIB-71) were maintained in DMEM supplemented with 10% FBS to a maximum of 8 passages. RAW 264.7 cells were differentiated to osteoclasts in the presence of 100 ng/ml murine RANKL for 5 days. To separate unfused mononucleated and fused, multinucleated RAW 264.7 cells into separate fractions, advantage was taken of the much stronger adherence of multinucleated cells to culture dish plastic. After washing in PBS, mixed RAW cultures (following RANKL differentiation) were left in Ca^2+ and Mg^2+ free PBS for 10 minutes at room temperature. Culture dishes were then tapped on the lab bench and a large portion of unfused, mononucleated RAW cells were released, and these released cells were collected via centrifugation. This process was repeated 2-4 times until dishes were left with a population of primarily fused, multinucleated syncytia. Mononucleated and multinucleated cell fractions were then processed for biochemical or imaging experiments as described below.
Constructs & Recombinant proteins & Transfection: Recombinant La 1-408, 1-375, 1-375 Q20A_Y24A_D33I, 1-187 and 188-375 were amplified with primers designed with overlapping sequences and inserted between NdeI/HindIII in the V78 pET28A E. coli expression vector, adding to each a N-terminal 6×his affinity tag. La 1-408 was expressed as a recombinant protein in E. coli and purified using IMAC columns by SD Biosciences (San Diego, CA). The remaining constructs were transformed into BL2 (DE3) chemically competent E. coli (Thermo Fisher Scientific) and protein expression was induced with IPTG. Cells were lysed with Bugbuster (Sigma), and 6×his-La proteins were affinity purified using HisPur Cobalt Spin columns (Thermo Fisher Scientific), each according to the manufacturer's instructions. Endotoxin contaminates were depleted from affinity purified 6×his-La proteins using Pierce high-capacity endotoxin removal columns (Thermo Fisher Scientific), according to the manufacturer's instructions. Proteins were then sterile filtered, aliquoted and kept at −80 C.
Plasmids were introduced into primary osteoclasts at day 2 of RANKL stimulation via jetPRIME (Polyplus Transfection). FLAG-La 1-408, FLAG-La 1-375 and FLAG-La 1-375 Q20A_Y24A_D33I plasmids were a gift of the Maraia Lab (NICHD). Briefly, SSB (UniProt P05455) was inserted between HindIII and BamHI the pFLAG-CMV2 vector (Sigma). “Uncleavable” La was produced by taking the FLAG-La 1-408 plasmid and making two point mutations at amino acids D371A and D374A, abrogating the caspase cleavage sites at the C-terminal region of the protein (Emory Integrated Genomics Core). siRNA were introduced into primary osteoclasts after 1 day of RANKL stimulation via Lipofectamine RNAiMAX (Thermo Fisher Scientific). Non-targeted (Cat #4390843) and SSB-targeted (Cat #4392420_ID:s13469) siRNA were introduced at a concentration of 5 ng/ml (Silencer Select, Ambion).
Fusion Assays: Osteoclast fusion in the culture systems was evaluated by fluorescence microscopy (Verma et al., J Biol Chem 293, 254-270, doi:10.1074/jbc.M117.809681 (2018)). Briefly, cells were fixed with 4% paraformaldehyde at timepoints of interest, permeabilized with 0.1% TRITON™ X-100 and blocked with 5% FBS. Cells were then stained with phallodin-ALEXAFLURO®488 and Hoechst to label cells' actin cytoskeleton and nuclei, respectively. […]

B1: recombinant La: recombinant La, species not specified at the place; 40 nM FL La in HA0-RBC assay (protein, UniProt P05455 1-408, looked up)
Lupus La protein: MAENGDNEKMAALEAKICHQIEYYFGDFNLPRDKFLKEQIKLDEGWVPLEIMIKFNRLNRLTTDFNVIVEALSKSKAELMEISEDKTKIRRSPSKPLPEVTDEYKNDVKNRSVYIKGFPTDATLDDIKEWLEDKGQVLNIQMRRTLHKAFKGSIFVVFDSIESAKKFVETPGQKYKETDLLILFKDDYFAKKNEERKQNKVEAKLRAKQEQEAKQKLEEDAEMKSLEEKIGCLLKFSGDLDDQTCREDLHILFSNHGEIKWIDFVRGAKEGIILFKEKAKEALGKAKDANNGNLQLRNKEVTWEVLEGEVEKEALKKIIEDQQESLNKWKSKGRRFKGKGKGNKAAQPGSGKGKVQFQGKKTKFASDDEHDEHDENGATGPVKRAREETDKEEPASKQQKTENGAGDQ
- pelleting with liposomes ([1]; PS containing liposomes, La alone): pelleted poorly
- pelleting with liposomes ([1]; PS containing liposomes, La with Anx A5, Ca^2+): pelleted with liposomes
- pelleting with liposomes ([1]; liposomes lacking PS): neither La nor Anx A5 pelleted
- HA0-cell bound RBCs that exchanged lipid (hemifusion) or cytoplasmic (fusion pore) probes [2]: none of 872
- lower activity than fusion mediated by activated HA [2]: at least 100 fold
- probability of La mediated fibroblast-RBC fusion ([2]; upper limit by Wilson's method, 40 nM): ≤ 0.0044 per cell contact
- synchronized osteoclast membrane fusion (human osteoclasts): dramatically promoted
- formation of multinucleated syncytia (osteoclast fusion) [3]: promotes osteoclast fusion
